The record followed here is US20060167220A1, “Methods and compositions for preparing peptides with excellent solubility characteristics in aqueous solution at physiological pH” (priority 2004, published 2006).

This data set in a line: Dissolution test of peptide sample (pH raised stepwise with NaOH until dissolved). The data set is classed as physicochemical. As to the method:
For example, a simple dissolution test can be used to evaluate the solubility characteristics of a peptide sample. The test is conveniently carried out at a temperature in the range of from about 20° C. to about 27° C., preferably about 25° C. From about 0.1 to about 0.3 grams of peptide is combined with about 1 to about 3 ml of an aqueous medium. The medium may be deionized water. In the case of T-20 or T-1249, these peptides are mildly acidic. Consequently, the medium optionally may include some initial amount base, e.g., about 17 mM Na2CO3 or the like, to provide a suitable initial pH. […] The mixture is rapidly stirred for 5 to 10 minutes between additional increments. Solids adhering to the sides of the testing vessel should be re-suspended. Rapid mixing should be maintained throughout. Results include observations regarding the clarity of the mixture, time required for dissolution, concentration and amount of caustic used, final pH upon dissolution (if this occurs below pH 9), and the like.
For purposes of the invention, peptides such as T-20, T-1249, and GLP-1, as well as counterparts of these, may be deemed to be in a more desired, deaggregated form if dissolution in accordance with this test occurs at a pH of less than about 8, preferably less than about 7.5. If dissolution occurs at a pH of greater than about 7.5, more preferably greater than about 8, the peptide is deemed to be in a less desired aggregated form. This helps to ensure the practicality of handling the peptide during subsequent processing and handling.

[1] abbreviates: precipitated with 18% by volume acetonitrile.

In the case of “Acetyl-WQEWEQKITALLEQAQIQQE KNEYELQKLDKWASLWEWF-NH2 (Ac-WQEWEQKITALLEQAQIQQEKNEYELQKLDKWASLWEWF-NH2) [Sample T-1249, ID NO; 20]”, the Dissolution behavior result (precipitated with 14% by volume acetonitrile) is listed as “dissolved to some degree at a pH of 6.95 but not completely”. Moreover, under setting [1], the Dissolution time came to 1 h, the “Final pH at dissolution” value is listed as 6.69 and the Turbidity in words result is reported as “only very faint turbidity”. Besides, the “Dissolution pH” value (precipitated with 20 to 22 volume percent acetonitrile) is given as “around 9”. Moreover, under “precipitated with no co-solvent”, the Dissolution behavior result is “dissolved very slowly with high turbidity even after 14 to 18 hours and even at a pH of 8”.
